Experimental findings from the supplement of paper PMC7125110 are described below.

± gives the standard error. This sample holds only a part of the variants without activity.

The labels stand for the following.
B1: glmS ribozyme (parent)
chain: AUAAAAGCGCCAGAACUACAGAAAUGUAGUUGACGAGGAGGAGGUUUAUCGAAUUUUCGGCGGAUGCCUCCAAA

Conditions in all cases: with glucosamine-6-phosphate
Variants of B1 are the subject of data set [1]. The data set can be described thus: self-cleavage kobs at 160 uM GlcN6P; higher = faster cleavage; RNA array. The gist of the method:
(§1)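 Glucosamine-6-phosphate, from 40 μM to 10 mM in HEPES/KCl/Mg(OAc)2 buffer, was flowed over sequenced MiSeq chips carrying barcoded ribozyme variants transcribed in situ by E. coli RNA polymerase. A hybridised Cy3 probe tracked the variants at 37 °C as tiles were imaged over ~14 h. kobs, kcat and KM were obtained by fitting normalised per-tile medians to exponential decays and then applying weighted Michaelis–Menten fits across concentrations.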

Data set [2] covers variants of B1. The data set can be described thus: self-cleavage kobs at 640 uM GlcN6P; higher = faster cleavage; RNA array. A digest of the protocol: as §1
Variants of B1 are the subject of data set [3]. Put plainly: self-cleavage kobs at 2500 uM GlcN6P; higher = faster cleavage; RNA array. The gist of the method: as §1
In data set [4] the parent is B1. Put plainly: self-cleavage kobs at 10000 uM GlcN6P; higher = faster cleavage; RNA array. The gist of the method:
as §1

For the variant AUAAAAGGGCAAGAACUACAGAAAUGUAGUUGACGAGGAGGAGGUUUAUCGAAUUUUCGGCGGAUGCCUCCAAA, the “self-cleavage kobs at 160 uM GlcN6P” value in data set [1] was less than 1e-05 s⁻¹. The “self-cleavage kobs at 640 uM GlcN6P” value in data set [2] is less than 1e-05 s⁻¹. Also, in data set [3], the “self-cleavage kobs at 2500 uM GlcN6P” value was less than 1e-05 s⁻¹. Further, the “self-cleavage kobs at 10000 uM GlcN6P” value in data set [4] was less than 1e-05 s⁻¹.
In the case of AUAAAAUCGCCAGAACUACAGAAAUGUAGUUGACGAGGAGGAGGUUUAUCGAAUUUUCGGCGGAUGCCUACAAA, in data set [2], the “self-cleavage kobs at 640 uM GlcN6P” value worked out at 0.000596 ± 0.00023 s⁻¹.
On to AUAAAAGCGCCAGAACUACAGAAAUGUAGUUGACGAGGAGGAGCUUUAUCGAAUUUUAGGCGGAUGCCUCCAAA, for which, in data set [1], the “self-cleavage kobs at 160 uM GlcN6P” value was less than 1e-05 s⁻¹. Besides, the “self-cleavage kobs at 640 uM GlcN6P” value in data set [2] was less than 1e-05 s⁻¹. The “self-cleavage kobs at 2500 uM GlcN6P” value in data set [3] was less than 1e-05 s⁻¹. Further, the “self-cleavage kobs at 10000 uM GlcN6P” value in data set [4] is less than 1e-05 s⁻¹.
For AUAAAAGCGCCAGAACUACAGAAAUGUAGUUGACGAGGAGGAGGGUUAUCGAGUUUUCGGCAGAUGCCUCCAAA, in data set [2], the “self-cleavage kobs at 640 uM GlcN6P” value was less than 1e-05 s⁻¹. For the same variant, the “self-cleavage kobs at 2500 uM GlcN6P” value in data set [3] is less than 1e-05 s⁻¹.
With AUAAAUGCGCCAGAACUACAGAAAUGUAGUUGGCGAGGAGGAGGUUUAUCGAAAUUUCGGCGGAUGCCUCCAAA, the “self-cleavage kobs at 640 uM GlcN6P” value in data set [2] was less than 1e-05 s⁻¹.
In the case of AUAAAAGGGCCAGAACUACAGAAAUGUAGUUGACGAGGAGGAGCUUUAUCGAAUUUUCGGCGGAUGCCUCCAAA, the “self-cleavage kobs at 160 uM GlcN6P” value in data set [1] was less than 1e-05 s⁻¹. In addition, in data set [2], the “self-cleavage kobs at 640 uM GlcN6P” value was less than 1e-05 s⁻¹. Besides, in data set [3], the “self-cleavage kobs at 2500 uM GlcN6P” value is less than 1e-05 s⁻¹. Moreover, the “self-cleavage kobs at 10000 uM GlcN6P” value in data set [4] was less than 1e-05 s⁻¹.
AUAAAAGCGCCAGAACUACAGAAAUGUAGUUGACGAUGAGGAGGUUUAUCGAAUUUUAGGCGGAUGCCUCCAAA: the “self-cleavage kobs at 160 uM GlcN6P” value in data set [1] was less than 1e-05 s⁻¹. The “self-cleavage kobs at 10000 uM GlcN6P” value in data set [4] was less than 1e-05 s⁻¹.
For AUAAAAGCUCCAGAACUACAGAAAUGUAGUUGACGAGGGGGAGGUUUAUCGAAUUUUCGGCGGAUGCCUCCAAA, the “self-cleavage kobs at 160 uM GlcN6P” value in data set [1] was less than 1e-05 s⁻¹. The “self-cleavage kobs at 2500 uM GlcN6P” value in data set [3] was less than 1e-05 s⁻¹.
For the variant AUAAAAGCGCCAGGACUACAGAAAUGUAUUUGACGAGGAGGAGGUUUAUCGCAUUUUCGGCGGAUGCAUCCAAA, the “self-cleavage kobs at 160 uM GlcN6P” value in data set [1] turned out to be 0.000918 ± 0.00046 s⁻¹. Further, in data set [2], the “self-cleavage kobs at 640 uM GlcN6P” value worked out at 0.000113 ± 4.7e-05 s⁻¹.
On to AUAAAAGCGCCAGAACUACAGAAAUGUAGUUGACGAGAAGGAGGUUUAUCGAAUUUACGGCGGAUUCCUACAAA, for which, in data set [2], the “self-cleavage kobs at 640 uM GlcN6P” value worked out at 6.22e-05 ± 2.6e-05 s⁻¹. Besides, the “self-cleavage kobs at 2500 uM GlcN6P” value in data set [3] was 6.05e-05 ± 2.3e-05 s⁻¹.
For the variant AUAAAAGCGCCUGAACUACAGAAAUGUAGUGGACGAGGAGGAGGUUUAUCGAAUUUUCGGCGGAUGCCCCCAAA, the “self-cleavage kobs at 160 uM GlcN6P” value in data set [1] was determined as 0.000336 ± 6.5e-05 s⁻¹. The “self-cleavage kobs at 640 uM GlcN6P” value in data set [2] is 0.000408 ± 0.00019 s⁻¹. For the same variant, the “self-cleavage kobs at 2500 uM GlcN6P” value in data set [3] is 0.0026 ± 0.00042 s⁻¹.
For AUAAAAGCGCCAGAACUACAGAAAUGUAGUUGACGAGGAGGAGGGUUAUCCAAUUUUCGGCGGCUGCCUCCAAA, the “self-cleavage kobs at 160 uM GlcN6P” value in data set [1] is less than 1e-05 s⁻¹. For the same variant, the “self-cleavage kobs at 640 uM GlcN6P” value in data set [2] was less than 1e-05 s⁻¹.
On to AUAAAGGCGCCAGAACUACAGAAAUGUAGUUGACGAGGAGGAGGUUUAUGGUAUUUUCUGCGGAUGCCUCCAAA, for which the “self-cleavage kobs at 640 uM GlcN6P” value in data set [2] is less than 1e-05 s⁻¹.
AUAAAAGCGCCAGAACUACAGAAAUGUAGUUGACGAGGAGGAGGUUUAUUCAAUUUUCGGCGGAUGCCUCCAAA: the “self-cleavage kobs at 160 uM GlcN6P” value in data set [1] is less than 1e-05 s⁻¹. The “self-cleavage kobs at 640 uM GlcN6P” value in data set [2] was less than 1e-05 s⁻¹. In addition, the “self-cleavage kobs at 2500 uM GlcN6P” value in data set [3] is less than 1e-05 s⁻¹.
With AUAAAGGCGCCAGAACUACAGAAAUGUAGUUGACGAGGAGGAGGUUUAUCGAAUUUACGACGGAUGCCUCGAAA, the “self-cleavage kobs at 160 uM GlcN6P” value in data set [1] was less than 1e-05 s⁻¹. Moreover, in data set [2], the “self-cleavage kobs at 640 uM GlcN6P” value is less than 1e-05 s⁻¹. For the same variant, the “self-cleavage kobs at 2500 uM GlcN6P” value in data set [3] is less than 1e-05 s⁻¹.
As to AUAAAACCGCCAGAACUACAGAAAUGUAGUUGACGAGGAGGAGGUUUAUAGAAUUUUCGGCGGAUGCCUCCAAA, the “self-cleavage kobs at 160 uM GlcN6P” value in data set [1] is less than 1e-05 s⁻¹. For the same variant, the “self-cleavage kobs at 640 uM GlcN6P” value in data set [2] was less than 1e-05 s⁻¹. In addition, in data set [4], the “self-cleavage kobs at 10000 uM GlcN6P” value was less than 1e-05 s⁻¹.
